Test results as given in patent US20130115676.
Substitutions are numbered along the chain they refer to.

Key:
Assay in all cases: cleavage_in_vitro
[1] = test system: T1, NcoI-HF A2T/R31A (Nocardia corallina); settings: NEB4, 10 mM Mg acetate, 37 C
T1 sequence: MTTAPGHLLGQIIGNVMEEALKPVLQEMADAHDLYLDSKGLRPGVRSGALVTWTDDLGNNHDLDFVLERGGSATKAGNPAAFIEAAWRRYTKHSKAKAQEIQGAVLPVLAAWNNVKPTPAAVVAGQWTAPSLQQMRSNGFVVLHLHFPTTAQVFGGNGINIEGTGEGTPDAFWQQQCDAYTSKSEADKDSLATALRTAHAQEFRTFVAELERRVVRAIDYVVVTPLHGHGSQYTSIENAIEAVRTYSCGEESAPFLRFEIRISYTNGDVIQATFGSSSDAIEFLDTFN

[2] = molecular target: T2, BamHI-HF E163A/E167T (Bacillus amyloliquefaciens) (UniProt P23940); settings: NEB4, 10 mM Mg acetate, 37 C
T2 sequence: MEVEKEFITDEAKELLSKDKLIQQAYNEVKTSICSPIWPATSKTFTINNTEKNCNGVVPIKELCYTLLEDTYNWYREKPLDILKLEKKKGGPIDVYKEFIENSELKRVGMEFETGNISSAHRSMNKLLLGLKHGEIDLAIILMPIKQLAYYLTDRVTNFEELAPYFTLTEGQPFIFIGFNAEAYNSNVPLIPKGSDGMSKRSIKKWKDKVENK

[3] = molecular target: T3, PstI-HF D91A (Providencia stuartii 164) (UniProt P00640); settings: NEB4, 10 mM Mg acetate, 37 C
T3 sequence: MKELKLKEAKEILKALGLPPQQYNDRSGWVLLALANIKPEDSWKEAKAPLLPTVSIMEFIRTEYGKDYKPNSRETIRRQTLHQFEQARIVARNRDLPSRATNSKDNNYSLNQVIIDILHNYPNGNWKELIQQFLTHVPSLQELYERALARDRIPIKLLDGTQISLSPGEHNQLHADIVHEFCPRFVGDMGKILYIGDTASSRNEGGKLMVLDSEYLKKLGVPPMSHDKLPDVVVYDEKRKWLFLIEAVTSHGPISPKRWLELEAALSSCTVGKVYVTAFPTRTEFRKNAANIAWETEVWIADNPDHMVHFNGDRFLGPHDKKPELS

[4] = test system: T4, SphI (Streptomyces phaeochromogenes); settings: NEB1, 10 mM MgCl2, 37 C
T4 sequence: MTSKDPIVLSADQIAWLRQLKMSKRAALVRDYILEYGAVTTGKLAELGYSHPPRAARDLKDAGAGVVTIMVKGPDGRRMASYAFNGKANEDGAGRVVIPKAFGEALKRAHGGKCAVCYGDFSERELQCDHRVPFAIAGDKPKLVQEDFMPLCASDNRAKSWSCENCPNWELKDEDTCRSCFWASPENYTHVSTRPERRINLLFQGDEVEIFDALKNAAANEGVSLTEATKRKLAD

[5] = test system: T5, SspI-HF Y98F (Sphaerotilus species); settings: NEB4, 10 mM Mg acetate, 37 C
T5 sequence: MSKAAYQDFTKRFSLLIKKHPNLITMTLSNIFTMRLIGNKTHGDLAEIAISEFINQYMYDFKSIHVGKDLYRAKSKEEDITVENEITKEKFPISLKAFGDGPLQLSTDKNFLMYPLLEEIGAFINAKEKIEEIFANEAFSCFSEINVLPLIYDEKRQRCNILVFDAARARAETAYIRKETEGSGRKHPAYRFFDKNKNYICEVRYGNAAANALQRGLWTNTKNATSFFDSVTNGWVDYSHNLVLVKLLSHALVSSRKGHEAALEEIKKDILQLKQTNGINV

[6] = test system: T6, SbfI-HF K251A (Streptomyces species Bf-61?); settings: NEB1, 10 mM MgCl2, 37 C
T6 sequence: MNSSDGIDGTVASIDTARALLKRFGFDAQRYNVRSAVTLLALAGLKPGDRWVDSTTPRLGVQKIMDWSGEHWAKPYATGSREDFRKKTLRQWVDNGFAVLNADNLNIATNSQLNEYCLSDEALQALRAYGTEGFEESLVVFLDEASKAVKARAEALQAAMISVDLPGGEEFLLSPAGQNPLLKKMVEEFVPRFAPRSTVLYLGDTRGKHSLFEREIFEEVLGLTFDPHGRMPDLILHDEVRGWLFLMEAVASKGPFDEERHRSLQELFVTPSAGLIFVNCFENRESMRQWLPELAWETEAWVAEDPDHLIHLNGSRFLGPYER

[7] = molecular target: T7, PstI (Providencia stuartii 164) (UniProt P00640); settings: NEB3, 10 mM MgCl2, 37 C
T7 sequence: T3 sequence with A91D

[8] = test system: T8, BspQI (Bacillus sphaericus); settings: NEB3, 10 mM MgCl2, 50 C
T8 sequence: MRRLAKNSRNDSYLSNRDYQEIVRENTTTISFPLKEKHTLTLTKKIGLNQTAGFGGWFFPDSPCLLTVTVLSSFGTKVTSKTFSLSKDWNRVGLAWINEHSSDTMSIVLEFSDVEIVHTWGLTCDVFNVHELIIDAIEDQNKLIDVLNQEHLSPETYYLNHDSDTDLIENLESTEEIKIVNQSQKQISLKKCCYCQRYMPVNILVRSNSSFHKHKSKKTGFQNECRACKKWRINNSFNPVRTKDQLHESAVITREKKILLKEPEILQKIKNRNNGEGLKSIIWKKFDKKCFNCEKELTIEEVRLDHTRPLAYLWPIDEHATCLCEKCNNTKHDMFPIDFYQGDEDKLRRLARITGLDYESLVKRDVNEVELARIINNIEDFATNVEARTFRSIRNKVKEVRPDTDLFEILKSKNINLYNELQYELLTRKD

lambda DNA
activity (fidelity index) [1]: > 64000
activity (fidelity index) [2]: > 4000
activity (fidelity index) [3]: 4000
activity (fidelity index) [4]: 64
activity (fidelity index) [5]: 500
activity (fidelity index) [6]: 1000
activity (fidelity index) [7]: 120
activity (fidelity index) [8]: 32
